These results are taken from article PMC11266426, “Membrane remodeling by FAM92A1 during brain development regulates neuronal morphology, synaptic function, and cognition” (Nature Communications, 2024).

A word on the stoichiometry N: it is a count of units in the complex or per binding partner.

The data set deals with the molecule itself. The experiment in a line: SEC-MALS; purified proteins on a Superdex 200 10/300 column at 4 °C, flow 0.5 mL/min; MiniDAWN light scattering and Optilab dRI detectors. A general note: Size exclusion chromatography separates by hydrodynamic size, large species first.

B1: Human FAM92A1 BAR domain (residues 1-219), wild type (domain or fragment, UniProt A1XBS5 1-219, looked up)
chain: MMRRTLENRNAQTKQLQTAVSNVEKHFGELCQIFAAYVRKTARLRDKADLLVNEINAYAATETPHLKLGLMNFADEFAKLQDYRQAEVERLEAKVVEPLKTYGTIVKMKRDDLKATLTARNREAKQLTQLERTRQRNPSDRHVISQAETELQRAAMDASRTSRHLEETINNFERQKMKDIKTIFSEFITIEMLFHGKALEVYTAAYQNIQNIDEDEDLE
notes: FAM92A1 (CIBAR1), human, residues 1-219 cloned into the pHAT vector between SpeI and NsiI; residues 2-211 form the BAR domain in the crystal structure; Homodimer by crystal structure and SEC-MALS; The pHAT vector probably adds the His tag at the N-terminus (surmise); also called FAM92A1 N-terminal region; WT; source: E. coli BL21 (DE3), purified (Ni-NTA, gel filtration on Superdex 75)
With B1, the “stoichiometry N” value worked out at 2.
